These results are taken from the NTF2 design screens of Basanta et al. (2020).

This data set can be described thus: protease stability score; higher = more stable; yeast display proteolysis, trypsin and chymotrypsin.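 Further: relative to predicted unfolded state with 0 unfolded-like and 1 meaning tenfold more protease.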
For “DEEEKEATHYLELFWKLKETGDWDELHRLLDPNVRLRINGKDVHGMERVTEEHLKRMKEIRIRHYHLDELRVQGDFVHIDVRVNGEIDGKRNMIEFHFHARKVDGRWFLHEVRIR”, the protease stability score was determined as 1.79. As for “TEELEELEKMLELVLRSFHTGDEHLLERLADPHAKYHFNGKNLHGWDKLSHLWRKAGVEKVESRIRDLELQGDYVNTDVEMRYNGRTEEVEFRVKKIDGRWIIKEIIIR”, the figure is 0.809.

In the case of “SEVEEEMKRRVELLIRLLLTGDEDTFDSNADPDTRVVIRQGDFRVENHGRELMLHHLRELGIKVTELHLREIRIQGDWAHVNIQEHIEVDGRLESRTIHLHFFLVDGKVKSWEIEVR”, the protease stability score turned out to be 1.27. As for “SEDQHELTTLLEHLLRIHRTGDFHTLERLMDPNTWTLVDGVWFVGREAVEYSNKLIKFTKRIEIDHFEIQGEKATIHGTYHSHYNGREFHIHVTTYYQKINGRWVLHSIEFR”, the figure is 1.38; as for “SEDEELVRRAVHRFIKLLETGDWDKIQNNVDPHVRLHVDGVDFIGRELFIHWVDRVKGMRHDIRDVRIEFHGDKAHIDMVTELEIGDKRRETRVHLVMRKINGRWIIESEEYRII”, 2.64. To “SEEDKIALEILEMTKKLWDTGDEELMVDLVDPHVKVDWDGRERHGREAVEFFFRSIIEKVKNLTIRLTDFRVINGRIEIDSTLKFNGKTLEVRIISTKIDGQWYIESISFR” belongs 1.38; to “DDRSEHAIHAFYEWWERFLTGDEKRLYELADPNTRLHVNGQRIHGMEEIMERILDLLKRVKNMRVDFDVRDVELQGDKIILRIEIILKYNGQKVRIDVHIISRKINGRWFLEQEREE”, 0.558; to “SEDEKLVHHAANLILEALWTGDEDTLREMVDPNVRTHINGREFHGWEESIRIILHHLNRFKNVRWHLHDQRVYGEKSHNDVRTNVDGVTLEVILILIVVDGRIRSISIEIR”, 2.68.

Turning to “TEDERHLEESIELFHEVHRTGDEEQLHRMLDPSVRVDVNGRILHGREIVVEWLRRTLEKFKNVQIEFILKDRDHINGVLRIHGVLLVNVGDKHTIIDTIIVAHKVNGRWLIHSMHVK”, the protease stability score worked out at 2.15. To “DEDRKEAERIARQTLHDLRTGNEDMLTKLLDPHARIDVNGVDNIGWEIIVKHVKERRHQWRIHHEHWRDYHFINGVIHIDLEVHIRVDGVDIRTETRVHILIINGRLREIRVEVD” belongs 0.772.

As for “DEEDKLSKEFSRTWEEIWRTGDEQEIKHLADPDTRDLVYIDGVNIDNHGREEMSRSMREWRDKFKNAREHVTHSRAQGDKVEMRIRIDFNGREIDMIVKIIVVDGRLKEFEIEIR”, the protease stability score stood at 1.56. As for “DEEEELSKIAYHLTEHIWETGDEDLLKELLDPNTQVTQGEWHVHGRESMHRFLRHVRERLGVDQIDVDVKSVRAFNGVVTTHVNLHFNGRTYTMTLFSNKYNGKWTVKSMKIQ”, the figure is 1.29. Sequence “DESEEESHKVAELVIKIWETGDEHIWENLADPHTRYEIDGKIIHGREIASHIMRIFLERVKNVTFRIKDVKRHVYNGVIEVRNETELNIGDKRIDTHIMVILRKVNGRWYMTEVRFQID” came in with a protease stability score of 1.53. To “DDETHEYEEAMELWVKALTTGNEDLLKDLHDPHTLTRINGRTEHGRHTWVEIRRKLGVKHLHIETSRLIDGRVHLHARIHVGDKNLEIIVIIVKVNGRWLTSEINIH” belongs 0.951; to “SELEHQVRKFVEIYVEAMRTGDEDVLRELADPHVRVVIGDKELHGWEEVVHKLRELRLEEIRVDRVRVIGDYVYVDGHSVWTYGDKRIEQRDIFTIRKVNGRWVLHDVILR”, 1.99; to “DEITEHTRSLMEVMLRVWETGDWKRFRELADPNVRMNVNGREVHGRDSVAKEIYKMLSDLGVDHSTTHHVDLIGNKAHHDVRMFFNGRETEIRIDIVLINGKVREVNIEIHTR”, 2.14. To “SEQWEEAKRLTDLYLTTSHTGDEQLSREFMDPHARTIVDGVEVHGMEEWANRFMRFVKQLRVDFRIHDMDVQGEKVDVDIRIRFVFNGVEHRIESILIVHKINGRWLMKEQRII” belongs 1.34; to “SEDDELAHLFFELFLKLIQTGDEDKLLDLMDPNAKSEYNGVILHGREHKEHWRRRFKNIRVHYRHVEIHFQGNYLHIRIDGSLDINGQEIDSHVRLHTEKVNGKWIVRSMHFHYT”, 1.25. As for “SEEEESSKYAIELLRKVVETGDWRLIQRLADPHAKIEQGDKRLHGRETVTKHLIELGIDHIKFRDSRVQGDKVELDGEVDVNGQHRDTHILIEKIDGVWVWRRFEIK”, the protease stability score is 0.97. To “DEEEEHSKNFLRLWINLWLTGDWRNLLKLADPNAKVVINGVRIHGMEFLVRLLHEEMEQVKNMRIHIHDRRLQGDKSTEILILHFDGVFYETRFHIDIVNGKVRRFQEERE” belongs 0.181.

“SEEEKVIWDIFQDWVRAYHTGNEDLIEHLMDPHVRLDINGKEKHGREWVRYHLHELREHIRTKEYEVHHFDVVDGRAHADYEFHVEYNGREFYRRTHIEIQIVNGKIRVINIRFE” came in with a protease stability score of 1.43. To “DEEKTIHNHLMELVVRAFLTGDEELWSNLADPDTKEIIDGKTNVGREEVAKFWKDLVHKFKNARWHITIKRVDVIDGQVRQNSHLEIRYGDKHFHLETEDHLYVINGRLKQFEFRVN” belongs 1.18; to “SEDEEAAKHMFELLVHHIETGDEESLRKLLDPNVRMDIDGRIIHGREIFARQMFLESLHIRTEFRLKHVDTIGEKLHLFTEVTYKINGVHIKRDTRVIILKVDGRWVFHSIRFE”, 0.951; to “SEDEREFLDVLKWLIEAVATGDERIWKELVDPHVRLEVGDKHRHGRETFEKTMRHLRVKEVRVKLHDFDFIGEKMTADVKLEIHLIVGDKERDIRLDIIVHSRKIDGKWHVESIHIR”, 1.51.

Sequence “SKEEKDYWEFAEIWISDLLTGDEDLRKHLHDPDVRYHYHQGDKTFETHGMEEVLKLDKDLWRRLGVKHLEIHRVEVQGDKIHLDARLQVGDKSTEVHILLIVVNGKVKHIHIFVH” yielded a protease stability score of 1.2. As for “DEEERDLQQFIEEWWKTLVTGDEHLIERYLDPHVRMDWNGRELHGREAIADTIKKYVDEIRLEVRINHVRFQGDKVDIDGEIVERQGDKTRHLNFELEIIVVNGRAQEIRVRLR”, the figure is 1.48.

Take “SEEDHHADEFRRIMYEIFETGDEKKFEDLFDPNVRWEQGDKHTHGMETATRDMLDLERRLGVDHIKYKDIRFELVDGRMIVYIIGTIYINGRPRHLHIEIIVSKINGRWFVENVRMKVE”: the protease stability score was 2.14. To “DEEEEFAKELIEEVTKTILTGDFRTFLELFDPNARLEFNGREIHGMEDWLKMMDELRREIWIHHNHNHRIEVQGDKAHTESRLDVSYNGQRYTLHSRLSIDVVDGRLKRLEYRTK” belongs 1.5; to “EEDSEMAREISESILRMIKTGDERHFMRLLDPHVKIDINGREHHGRHAATHQLRETSEKFGFDRITVRLESVHVQGEYVNINGRVEQGDFHLTLHFHFRKIDGRWVMDSVHIV”, 0.559. As for “DEHEETMHWALEVIEEFLQTGDERLMEENLDPNVRLEYGDKILVGRELFLELLRRLVEKYKNIRINIHDIKLYDGRLYLDVELRYGDFRSTTRIFSEKYNGRWVDRSYHVE”, the figure is 1.71; as for “HEEHESLRRATRHELQTLETGDEDLFEKLVDPNYKVVINGVELHGMHELRRWIIELRIDDFELHDVNVVNGRASIDGTMHTHVNGQRLERKVRIHIEKINGRWVRREYIYH”, 0.726; as for “DEDERDFRHYMELFQKAHETGDEDHFIKMMDPNARFLINGVHLHGWKEFVRLLEHIRMDVSDTRIRTVDSQGDKVRADTELIFRGKIDGREIDVTFETRIIIEKVDGRWHLREIRVH”, 1.3. To “SEHDKVLRELINLLWEALATGDFDQLHKLLDPHVKLDIGEWHSHGRESFIKNWLDDIRRVKNVRYELRHMDVINGQAHLDIHESYDGVRYDSELIIFIIDGKIHEITVHIR” belongs 0.83; to “REDEELVKQVVKDFDHAVETGDEDRLRELLDPDVRISQGDKEFHGREDYELHLRQWRYENHRVHDVRIYGDKARIHGHLHLKIGDKHLEVETILILHKVNGRWRVRHLEIR”, 1.83. With “DEEEKDMRHVLKLWVNEFLTGNEKNLSELMDPNVRVDIDGKQLHGRETLSHKIVEDAREARVRLEVESIRVVNGKAHVDVVLRFHQGDKSDHREIRVVFRKVDGRWLLHSLEVH”, the protease stability score worked out at 1.37. To “DEEDQFTEKITRILHEIHRTGDFEKWEKLADPHVKVVIGEFEQHGRETASWVIEWLARYMGIKHIELRDHRVINGVVHLEHEVKVGDKRIDLELRHFVYDGRLKETEIRFR” belongs 0.734; to “HEMEEMEELAFRLIEESIRTGDFTTLEDLFDPDTRIIIGDKDLHGREALRHLRERIDHLKELRVHRRTFIGDWLDMNLHMTGNVNGVEHRRDVRFIIWKINGQWRIHSVYEV”, 1.38; to “DETRELLDRLWERLVKALRTGDEDHVHDMLDPHVRIEIGDKILHGREALEVLWKRIDHISIHDFKLKRERRFENRIEVDGEVDGIVRIDGRENRHVTDTHYILVKIDGQWLIKTIHIK”, 2.29. As for “DERHETEERFLRTLIHSHMTGDEESHFEMMDPHAKLIYNGKEIHGMEVLRKELEEWRKKLGANHSHITIDHVELQGNKAHFDVTIDLIVDGRVIRTRIHIDIEKVDGRWIITRVIVK”, the figure is 0.489; as for “SEEEREIREIMKRFVQSFYTGDEHSLKKLLDPNVRHEFNGKEEHGWHRVWEDLAFFLRHIRIKHVVLRDVRVQGDKVHAHVEIHEEWDGRERDVEVHMRLEIVDGVVKSVKIEIQ”, 1.43. The sequence “SEIEKMFHIALKLWVRTMKTGDFEDLLRLLDPNWRLEVNGRTHHGREELEHEIRELGIDQFHLHHIEHKEFLVQGEKITIDGRINGEFNGVQYNTRVIIIAKKINGRWVLHSEEIK” registered a protease stability score of 1.37. To “SEEENEAKSWLEYVIRLLETGDEDSLRKLMDPHVRLIQGDKEFHGRELVTDIISEHIRKVKNVRIRIDDIKFIGEKVYLHGTLEYGDKKHELHLITDKVNGRWLLRSIELR” belongs 2.56; to “DEDEEISHRMVRLIMQLMVTGDEESLKEYFDPNTRLFIDGRNNHGRELAVDEIQKHFEELGVDHIEIRIHHKDAQGDFVEIHIRLIIHVGDFEVRSTVHIFVRKVDGRWMIEKIEIK”, 2.03. As for “DEKEELSKRAFERMLHWLETGDFDKFERYADPNVKTVIGDKYFIGRERVSRTVLHWLEVLGVDHRHVEDSDVHTFENHAVMDLHTRVHVDGQDREIRFILLVTKVNGRWNVTSIKIEIR”, the figure is 0.661; as for “DEDEQMKESLLKIYRQSMHTGDEESHERLADPNVRVDWDGVRYHGRHILAIILHELGADHMDLKIKDSRLVNGRIHMTVIEIIDIGDKKHKIETHLIADKFDGRWHLRTLEIR”, 0.785; as for “SEDEHAARWMTEDLERHTETGDEHRLTELIDPHAKLIFNGREYHGWEDYVKLFRELRVRRLEIKRVEVQGDKLFIDSTLRGNVNGREIDFEIHFVTHKINGRWKVHSVEII”, 1.69. As for “ETEEQYAEELARLYIEIWETGDEETLHKLADPDVRNDVDGKQLHGRESMIEFWRKLGISNVHFILHRLHVKTQGDFIDIHIDGQLDINGKVTRVEHRLHVEKYNGRWLLKEIYIKRD”, the figure is 1.72.
